What was measured:
[1] = molecular target: Matrix Metalloproteinase-9 (MMP-9), wild type (Homo sapiens (Human), UniProt P14780 20-707); experiment: cell-based or functional assay
[2] = molecular target: T1, MMP-9 with a carboxy-terminal Myc tag (MMP-9/Myc) (Homo sapiens (Human), UniProt P14780 20-707); experiment: co-immunoprecipitation, co-transfected COS-1 cells
T1 construct: Expressed from cDNA in COS-1 cells and secreted as proMMP-9; also called Myc-tagged MMP-9; proMMP-9/Myc; not shown: C-terminal Myc tag from the pcDNA3.1-myc vector
Source text: FIG. 4. Blade IV of the PEX domain of proMMP-9 is required for homodimerization and cell migration. (A) Ribbon diagram of MMP-9 PEX domain (PDB:1ITV). Each outermost β-strand from the four blades was swapped with the corresponding MMP-2 PEX domain sequences (upper panel). Lower panel: Schematic diagram of substitution mutations at the outermost 3-strands of four blade of MMP-9 by corresponding MMP-2 sequences. […] The conditioned medium was also examined by gelatin zymography (lower panel). […] (P-values reflect comparison with MMP-9 transfected cells: *P<0.05). (D) A peptide mimicking MMP-9 IVS4 abrogates MMP-9 dimerization examined by co-immunoprecipitation (upper panel). Total cell lysate (20 μg) was also examined by an immunoblotting assay using anti-HA antibody (lower panel). (E) Dose dependent inhibition of MMP-9-mediated cell migration by IVS4 peptides. No effect was found using scrambled peptides. COS-1 cells transfected with an empty vector or MMP-9 cDNAs were examined by a transwell chamber migration assay for 6 hours in the presence of DMSO control, specific and scramble peptides at different concentration. Each data point was performed in triplicate and the experiments was repeated three times (*P<0.05).
Each blade contains four anti-parallel […]-strands with peptide loops linking one strand to the next as illustrated in FIG. 1B. […]

B1: IS4 peptide (SRPQGPFL) (peptide)
peptide: SRPQGPFL
[1]
  IC50 (potency; inhibition of MMP-9-induced cell migration, transwell assay): 12 µM

B2: MMP-9/IVS4 chimera (MMP-9 with the outermost β-strand of blade IV of the PEX domain, NQVDQVGY, replaced by MMP-2 KSVKFGS) (enzyme)
chain: APRQRQSTLVLFPGDLRTNLTDRQLAEEYLYRYGYTRVAEMRGESKSLGPALLLLQKQLSLPETGELDSATLKAMRTPRCGVPDLGRFQTFEGDLKWHHHNITYWIQNYSEDLPRAVIDDAFARAFALWSAVTPLTFTRVYSRDADIVIQFGVAEHGDGYPFDGKDGLLAHAFPPGPGIQGDAHFDDDELWSLGKGVVVPTRFGNADGAACHFPFIFEGRSYSACTTDGRSDGLPWCSTTANYDTDDRFGFCPSERLYTQDGNADGKPCQFPFIFQGQSYSACTTDGRSDGYRWCATTANYDRDKLFGFCPTRADSTVMGGNSAGELCVFPFTFLGKEYSTCTSEGRGDGRLWCATTSNFDSDKKWGFCPDQGYSLFLVAAHEFGHALGLDHSSVPEALMYPMYRFTEGPPLHKDDVNGIRHLYGPRPEPEPRPPTTTTPQPTAPPTVCPTGPPTVHPSERPTAGPTGPPSAGPTGPPTAGPSTATTVPLSPVDDACNVNIFDAIAEIGNQLYLFKDGKYWRFSEGRGSRPQGPFLIADKWPALPRKLDSVFEERLSKKLFFFSGRQVWVYTGASVLGPRRLDKLGLGADVAQVTGALRSGRGKMLLFSGRRLWRFDVKAQMVDPRSASEVDRMFPGVPLDTHDVFQYREKAYFCQDRFYWRVSSRSELKSVKFGSVTYDILQCPED
notes: also called MMP-9/Blade IV; MMP-9/blade IV mutant
[2]
  binding result: no binding

B3: IVS4 peptide (NQVDQVGY) (peptide)
peptide: NQVDQVGY
[1]
  IC50 (potency; inhibition of MMP-9-induced cell migration, transwell assay): 50 µM
